Experiment: Thermostability assay of ADRA1A derived clones ([3H]prazosin binding after heat challenge)
Assay type: physicochemical
Conditions: PBS-E(DCC), no ligand during solubilization, even at 20° C.
Description: Detergent-stable ADRA1A library members were selected with FACS using 200 nM BODIPY FL prazosin. (FIG. 8a) 21 selected clones were expressed individually, solubilized and assayed for ligand binding activity after 3 hours in PBS-E(DCC). (FIG. 8b) The top 4 receptors were solubilized in PBS-E(DCC) for 3 h at 20° C. in the absence of ligand. Solubilized receptors were captured from the supernatant with streptavidin paramagnetic beads at 4° C. for 1 h. ADRA1ADCCA3 (black circles), ADRA1ADCCG4 (grey open squares), ADRA1ADCCD7 (black crosses) or ADRA1ADCCD8 (grey open circles) coated beads were either treated with 20 nM [^3H]prazosin for 1 h before being thermally challenged for 30 min at increasing temperatures or […] treated with 20 nM [^3H]prazosin after heating in the absence of ligand. […] Parallel measurements were taken for every receptor in the presence of 10 μM unlabeled prazosin as a competitor to determine the specific […] signal. Data points are plotted as the mean of duplicate measurements, 100% represents the signal measured after heating at 20° C. for 30 min. Error bars indicate the standard error of the mean.
For ADRA1A derived clones, expression and sonication was conducted as above, but the pellet was solubilized in PBS-E(DCC) containing 50 mg/ml chicken lysozyme at 20° C. with vigorous shaking for 3 h in the absence of ligand. […]

B1: wild-type ADRA1A: wild-type alpha 1A adrenergic receptor, parental receptor (protein, UniProt P35348 1-466, looked up)
Alpha-1A adrenergic receptor: MVFLSGNASDSSNCTQPPAPVNISKAILLGVILGGLILFGVLGNILVILSVACHRHLHSVTHYYIVNLAVADLLLTSTVLPFSAIFEVLGYWAFGRVFCNIWAAVDVLCCTASIMGLCIISIDRYIGVSYPLRYPTIVTQRRGLMALLCVWALSLVISIGPLFGWRQPAPEDETICQINEEPGYVLFSALGSFYLPLAIILVMYCRVYVVAKRESRGLKSGLKTDKSDSEQVTLRIHRKNAPAGGSGMASAKTKTHFSVRLLKFSREKKAAKTLGIVVGCFVLCWLPFFLVMPIGSFFPDFKPSETVFKIVFWLGYLNSCINPIIYPCSSQEFKKAFQNVLRIQCLCRKQSSKHALGYTLHPPSQAVEGQHKDMVRIPVGSRETFYRISKTDGVCEWKFFSSMPRGSARITVSKDQSSCTTARVRSKSFLQVCCCVGPSTPSLDKNHQVPTIKVHTISLSENGEEV
For B1, the “ligand binding signal when solubilized in the absence of ligand” value was “no significant fluorescence signal was obtained” and the “ligand binding signal when solubilized in the absence of ligand” value (listed as ADRA1A) was “No significant signal could be measured”.

— patent US11661676B2, “Cellular high throughput encapsulation for screening or selection” (Universität Zürich, priority 2012, dated 2023)
